Assay results reported in patent publication US7858298 (PROGENICS PHARMACEUTICALS, dated 2010).

Tests used:
[1] = biological target: T1, recombinant soluble human CD4 (human, UniProt P01730 26-396); experiment: flow cytometry on human CCR5-bearing murine L1.2 cells (data not shown)
T1 construct: also called sCD4; soluble CD4

[2] = biological target: T2, complex formed between sCD4 and biotinylated HIV-1LAI gp120 (HIV-1 LAI (BRU); human, UniProt P03377 33-516; P01730 26-396); experiment: as above
T2 construct: also called b-LAI:sCD4

B1: human CCR5 expressed on the cell surface (receptor)
chain: not shown
notes: whole, on cells; also called C-C CKR-5; CKR-5
Question: Does B1 bind [1]?
Answer: no binding

Question: Does B1 bind [2]?
Answer: no binding
